Several values for one entry are separate records, joined by “and”; a condition that tells them apart may be missing. Equal entries are not always repeated.
T1: Wdr26 (mouse, UniProt Q8C6G8 1-641)
T1 chain: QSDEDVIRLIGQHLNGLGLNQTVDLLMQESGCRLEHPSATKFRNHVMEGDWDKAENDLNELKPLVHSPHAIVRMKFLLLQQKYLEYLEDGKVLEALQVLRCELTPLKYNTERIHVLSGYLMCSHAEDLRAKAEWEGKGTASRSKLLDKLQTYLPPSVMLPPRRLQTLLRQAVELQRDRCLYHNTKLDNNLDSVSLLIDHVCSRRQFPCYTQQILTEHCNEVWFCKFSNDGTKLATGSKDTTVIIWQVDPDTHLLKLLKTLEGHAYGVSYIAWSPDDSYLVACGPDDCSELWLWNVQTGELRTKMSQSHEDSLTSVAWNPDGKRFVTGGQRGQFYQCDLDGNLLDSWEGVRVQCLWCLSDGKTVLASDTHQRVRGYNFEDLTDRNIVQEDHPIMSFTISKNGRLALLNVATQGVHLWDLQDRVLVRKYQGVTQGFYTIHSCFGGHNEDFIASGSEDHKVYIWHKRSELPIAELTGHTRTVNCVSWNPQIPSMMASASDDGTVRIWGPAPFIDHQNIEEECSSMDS


Key:
[1] = molecular target: T1, Wdr26; assay: SEC-MALS; Superose 6 10/300 GL, SEC buffer; molar mass of single proteins and of complexes assembled from purified proteins; details: both partners purified
[2] = molecular target: T1, Wdr26; assay: SEC-MALS; Wdr26 alone, dilution series from four batches, Superose 6 10/300 GL; molar mass at the peak against peak concentration, one-site model; dimer to higher oligomers; saturation not reached; details: both partners purified
[3] = molecular target: the molecule itself; assay: SEC-MALS; Superose 6 10/300 GL, SEC buffer; molar mass of single proteins and of complexes assembled from purified proteins

stoichiometry N [1] | Kd [2] [µM] | stoichiometry N [2] | Binder | stoichiometry N [3]
2 | 10 | ≥ 8 and 12 | Wdr26 (natural protein, Supplement: residues 1-101 deleted. Paper gives 625 residues, matching E0CYH4 (CTLH 136-195) rather than the 641-aa Q8C6G8 canonical form (CTLH 136-211). Forms a concentration-dependent oligomer …) QSDEDVIRLIGQHLNGLGLNQTVDLLMQESGCRLEHPSATKFRNHVMEGDWDKAENDLNELKPLVHSPHAIVRMKFLLLQQKYLEYLEDGKVLEALQVLRCELTPLKYNTERIHVLSGYLMCSHAEDLRAKAEWEGKGTASRSKLLDKLQTYLPPSVMLPPRRLQTLLRQAVELQRDRCLYHNTKLDNNLDSVSLLIDHVCSRRQFPCYTQQILTEHCNEVWFCKFSNDGTKLATGSKDTTVIIWQVDPDTHLLKLLKTLEGHAYGVSYIAWSPDDSYLVACGPDDCSELWLWNVQTGELRTKMSQSHEDSLTSVAWNPDGKRFVTGGQRGQFYQCDLDGNLLDSWEGVRVQCLWCLSDGKTVLASDTHQRVRGYNFEDLTDRNIVQEDHPIMSFTISKNGRLALLNVATQGVHLWDLQDRVLVRKYQGVTQGFYTIHSCFGGHNEDFIASGSEDHKVYIWHKRSELPIAELTGHTRTVNCVSWNPQIPSMMASASDDGTVRIWGPAPFIDHQNIEEECSSMDS | –
– | – | – | muskelin (natural protein, rat, UniProt Q99PV3 1-735, looked up, muskelin, rat, 735 residues) MAAGGAVAAAPECRLLPYALHKWSSFSSTYLPENILVDKPNDQSSRWSSESNYPPQYLILKLERPAIVQNITFGKYEKTHVCNLKKFKVFGGMNEENMTELLSSGLKNDYNKETFTLKHKIDEQMFPCRFIKIVPLLSWGPSFNFSIWYVELSGIDDPDIVQPCLNWYSKYREQEAIRLCLKHFRQHNYTEAFESLQKKTKIALEHPMLTDMHDKLVLKGDFDACEELIEKAVNDGLFNQYISQQEYKPRWSQIIPKSTKGDGEDNRPGMRGGHQMVIDVQTETVYLFGGWDGTQDLADFWAYSVKENQWTCISRDTEKENGPSARSCHKMCIDIQRRQIYTLGRYLDSSVRNSKSLKSDFYRYDIDTNTWMLLSEDTAADGGPKLVFDHQMCMDSEKHMIYTFGGRILTCNGSVDDSRASEPQFSGLFAFNCQCQTWKLLREDSCNAGPEDIQSRIGHCMLFHSKNRCLYVFGGQRSKTYLNDFFSYDVDSDHVDIISDGTKKDSGMVPMTGFTQRATIDPELNEIHVLSGLSKDKEKREENVRNSFWIYDIVRNSWSCVYKNDQAAKENLSKSLQEEEPCPRFAHQLVYDELHKVHYLFGGNPGKSCSPKMRLDDFWSLKLCRPSKDYLLRHCKYLIRKHRFEEKAQMDPLSALKYLQNDLYITVDHSDPEETKEFQLLASALFKSGSDFTALGFSDVDHTYAQRTQLFDTLVNFFPDSMTPPKGNLVDLITL | 4

Source: article PMC9932110, “RanBP9 controls the oligomeric state of CTLH complex assemblies” (The Journal of Biological Chemistry, 2023)
